Data as given in paper PMC3799859, “Sigma-1 Receptor Chaperone at the ER-Mitochondrion Interface Mediates the Mitochondrion-ER-Nucleus Signaling for Cellular Survival” (PLoS ONE, 2013).

Molecular target: the molecule itself
Assay: non-reducing gel and blot of the purified protein; ΔIRE1-V5/His purified on a Ni column, non-reducing condition (without β-mercaptoethanol)

B1: ΔIRE1-V5/His (ER lumenal domain of human IRE1) (domain or fragment, UniProt O75460 19-443, looked up)
chain: IFGSTSTVTLPETLLFVSTLDGSLHAVSKRTGSIKWTLKEDPVLQVPTHVEEPAFLPDPNDGSLYTLGSKNNEGLTKLPFTIPELVQASPCRSSDGILYMGKKQDIWYVIDLLTGEKQQTLSSAFADSLCPSTSLLYLGRTEYTITMYDTKTRELRWNATYFDYAASLPEDDVDYKMSHFVSNGDGLVVTVDSESGDVLWIQNYASPVVAFYVWQREGLRKVMHINVAVETLRYLTFMSGEVGRITKWKYPFPKETEAKSKLTPTLYVGKYSTSLYASPSMVHEGVAVVPRGSTLPLLEGPQTDGVTIGDKGECVITPSTDVKFDPGLKSKNKLNYLRNYWLLIGHHETPLSASTKMLERFPNNLPKHRENVIPADSEKKSFEEVINLVDQTSENAPTTVSRDVEEKPAHAPARPEAPVDSMLKD
notes: human IRE1, lumenal domain (ΔIRE1), lacking the cytoplasmic domain; Most of the purified protein is a dimer under non-reducing conditions; a portion was pretreated with β-mercaptoethanol to keep it monomeric; source: CHO, transfected (pcDNA3.1); in lysate, or purified from the cell extract on Ni-NTA agarose; not shown: V5, C-terminal, kept; His, C-terminal, kept
- stoichiometry N: 2
